The values below come from article PMC3808375, “Reduction of Decoy Receptor 3 Enhances TRAIL-Mediated Apoptosis in Pancreatic Cancer” (PLoS ONE, 2013).

Where two headings read alike, the source gives them in different places.

The target of test [1] is recombinant human DcR3 (decoy receptor 3) (human) (UniProt O95407). The experiment in a line: SPR; Biacore 3000; DcR3 amine-coupled to a CM5 chip; TRAIL 1-2048 nM or LIGHT 1-512 nM flowed at 20 µl/minute; HBS-EP buffer (10 mM HEPES pH 7.4, 150 mM NaCl, 3.4 mM EDTA, 0.005% Surfactant P20); 1:1 binding model, global analysis. On the technique in general: Surface plasmon resonance follows binding to a sensor surface in real time, without labels.
Sequence of recombinant human DcR3 (decoy receptor 3) (human) (O95407 30-300): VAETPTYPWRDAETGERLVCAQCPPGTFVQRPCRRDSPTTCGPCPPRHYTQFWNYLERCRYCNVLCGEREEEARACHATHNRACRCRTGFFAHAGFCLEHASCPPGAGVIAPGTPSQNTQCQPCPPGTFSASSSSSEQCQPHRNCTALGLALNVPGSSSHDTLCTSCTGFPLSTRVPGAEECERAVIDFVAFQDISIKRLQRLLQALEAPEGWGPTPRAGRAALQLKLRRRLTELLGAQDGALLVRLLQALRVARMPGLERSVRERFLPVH

The target is the same in test [2]. The description is as above. The source holds these as a separate data set.

“recombinant human TRAIL (TNF-related apoptosis-inducing ligand) (from UniProt P50591 1-281)”: in test [1], the Kd – broadly, the concentration at which binding is half-saturated – was 52.8 nM; the off-rate (koff) (usually a measure of how fast the partners let go of each other) stood at 0.00104 s⁻¹; the kon (usually the second-order rate constant of association) was 19400 M⁻¹ s⁻¹. Moreover, in test [2], the kon amounted to 19700 M⁻¹ s⁻¹.
